Source: publication PMC12455937, “Interaction of West Nile virus NS5 with orthoflavivirus SLA RNAs and their effects on viral replication and inhibition” (Journal of Virology, 2025)
Several values for one entry are separate records, joined by “and”; a condition that tells them apart may be missing. Equal entries are not always repeated.

Molecular target: the molecule itself
Assay: mass photometry; NS5 alone at 20 nM in MP buffer (50 mM HEPES, pH 7.5, 40 mM NaCl, 10 mM MgCl2); TwoMP (Refeyn); DENV NS3 and NS5 as mass standards; oligomers assigned from peak masses

B1: Full-length lineage II WNV NS5 (enzyme)
chain: not shown
notes: also called full-length NS5; viral polymerase
stoichiometry N: 2 and 3 and 4
